{"source": "paper PMC4897654", "about": "“hSSB1 (NABP2/OBFC2B) is regulated by oxidative stress” (Scientific Reports, 2016)", "proteins": {"B1": {"name": "recombinant C99S hSSB1 (natural protein, human, UniProt Q9BQ15 1-211, looked up)", "chain": "MTTETFVKDIKPGLKNLNLIFIVLETGRVTKTKDGHEVRTCKVADKTGSINISVWDDVGNLIQPGDIIRLTKGYASVFKGCLTLYTGRGGDLQKIGEFSMVYSEVPNFSEPNPEYSTQQAPNKAVQNDSNPSASQPTTGPSAASPASENQNGNGLSAPPGPGGGPHPPHTPSHPPSTRITRSQPNHTPAGPPGPSSNPVSNGKETRRSSKR", "notes": "human hSSB1 (NABP2/OBFC2B) with cysteine 99 mutated to serine; source: E. coli T7 shuffle strain, purified under non-reducing conditions"}, "B2": {"name": "recombinant C81S hSSB1 (natural protein, human, UniProt Q9BQ15 1-211, looked up)", "chain": "B1 chain with C81S, S99C", "notes": "human hSSB1 (NABP2/OBFC2B) with cysteine 81 mutated to serine; source: E. coli T7 shuffle strain, purified under non-reducing conditions"}, "B3": {"name": "recombinant hSSB1 (hexa-histidine tagged, wild type) (natural protein, human, UniProt Q9BQ15 1-211, looked up)", "chain": "B1 chain with S99C", "notes": "Oxidized and reduced preparations are the same construct; also called his-hSSB1; hSSB1 WT; source: E. coli T7 shuffle strain (Δgor ΔtrxB), purified (SP sepharose, Ni-NTA, Superdex200); without reducing agents (\"oxidized\") or with 1 mM DTT in all buffers (\"reduced\")"}, "B4": {"name": "human single-stranded DNA binding protein 1 (hSSB1), endogenous (natural protein, human (endogenous in U2OS), UniProt Q9BQ15 1-211, looked up)", "chain": "B1 chain with S99C", "notes": "also called NABP2; OBFC2B; source: endogenous, U2OS whole cell lysate"}}, "key": {"[1]": {"target": "the molecule itself", "assay": "non-reducing SDS-PAGE; recombinant hSSB1 proteins purified under non-reducing conditions, no reducing agent; Coomassie blue (2 μg) and anti-hSSB1 immunoblot (500 ng)"}, "[2]": {"target": "the molecule itself", "assay": "SEC-MALS; non-reduced (oxidized) protein, ~200-250 μg on Superose 12 10/30; 20 mM Tris pH 7, 100 mM NaCl, 1 mM EDTA, without TCEP"}, "[3]": {"target": "the molecule itself", "assay": "non-reducing SDS-PAGE with immunoblot; whole cell lysates of U2OS cells (2% O2) treated with 250 μM H2O2 or 30 mM KBrO3 for 30 min; loading buffer without DTT; probed for endogenous hSSB1"}}, "note": "Where a chain is given by its changes, count along the chain named. In names and notes the source's numbering stands."}
{"protein": "B1", "values": [{"measurement": "binding result", "setting": "[1]", "result": "binds"}]}
{"protein": "B2", "values": [{"measurement": "binding result", "setting": "[1]", "result": "binds"}]}
{"protein": "B3", "values": [{"measurement": "stoichiometry N", "setting": "[2]", "result": "> 3"}, {"measurement": "stoichiometry N", "setting": "[1]", "result": 2}]}
{"protein": "B4", "values": [{"measurement": "stoichiometry N", "setting": "[3]", "result": "~4"}]}
